According to US20190256560A1 (INSTITUT PASTEUR, published 2019):

Biological target: T1, Recombinant soluble Zika virus E ectodomain (ZIKV sE), strain H/PF/2013 (Zika virus, UniProt A0A024B7W1 291-694)
T1 construct: also called ZIKV sE dimer; recombinant ZIKV E protein
Assay: BLI (Octet), IgG on anti-human IgG Fc sensors, ZIKV sE dimer in solution

T1 sequence (A0A024B7W1 291-694): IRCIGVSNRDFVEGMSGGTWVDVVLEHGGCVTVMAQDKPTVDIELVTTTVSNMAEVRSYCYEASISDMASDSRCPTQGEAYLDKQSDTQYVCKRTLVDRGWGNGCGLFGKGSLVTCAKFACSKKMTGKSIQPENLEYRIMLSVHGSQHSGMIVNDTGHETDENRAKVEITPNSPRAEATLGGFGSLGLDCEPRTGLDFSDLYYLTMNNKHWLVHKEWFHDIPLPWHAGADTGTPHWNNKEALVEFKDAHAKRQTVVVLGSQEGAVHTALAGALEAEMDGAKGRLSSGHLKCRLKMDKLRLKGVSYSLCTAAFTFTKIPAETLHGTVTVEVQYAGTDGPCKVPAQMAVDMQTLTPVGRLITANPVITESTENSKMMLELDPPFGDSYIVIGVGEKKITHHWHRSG

B1: EDE2 A11, human recombinant IgG (antibody, V domains shown)
VH: EVQLVESGGGLVRPGGSLRLSCAASGFSYSNHWMHWVRQAPGKGLVWVSRINSDGSTRNYADFVKGRFTISRDNAENTLYLEMNSLTADDTAVYYCVRDGVRFYYDSTGYYPDSFFKYGMDVWGQGTTVTV
VL: QSVLTQPVSVSGSPGQSITISCTGTSSNADTYNLVSWYQQRPGKAPKLMIYEGTKRPSGVSNRFSASKSATAASLTISGLQPEDEADYYCCSYATSRTLVFGGGTKLTVV
notes: Human IgG; also called IgG EDE2 A11
B1: binds.
